# Measured values from the DeepSol protein solubility set.
# Assay: soluble on expression in E. coli; label from the status in PepcDB or PDB records
row,Sequence,soluble on expression in E. coli
1,MSLYTVLVADDKEVFRRKVKRMPYFQDHKEKFAIRYEAQNGLEALEILRSHDVDMVLTDIRMPFIDGIELLKHVNAENLCKCVILLSEFAEFNYAKAGILNGAFDYVLKPVDDEKIQETFDRAYNYLTTINAAVNAQTQRIETLARLMLAGDRMNALAYAKHIGAGLQAHGAITGERIVQANDTLAQLNKYILQKRPFLHYYLPFDELCCLDAKKTTPGKISDAFNACVSTVMDAIEPFCVQSTNELVGRTCQLVLEKLDSKVSLHGIADNLYVNPKYLGALFKKETGRSFVDYVTFARMERAKMLLRNPTLKVYEVAAQLGYDDVDYFSKVFKKLTAESPSIYREMRKEGHHHHHH,soluble
2,MKKTHINVIGAGLAGSEAAYQIAKRGIPVKLYEMRGVKQTPQHKTDKFAELVCSNSLRGAAITNAVGLLKEEMRRLDSVIIKAAEVTQVPAGGALAVDREGFSDFVTREVSNHPLVEVIREEITDLPEDEITIIATGPLTSDKLAEKIHEFNGADGFYFYDAAAPIIDANSINFDKVYKKSRYDKGEADYINCPMTKEEFQAFQEALISAEEAPLNSFEDLKVFEGCMPIEEMAKRGYKTMLFGPMKPVGLEYPEDYKGPRDGDFKTPYAVVQLRQDNASASLYNIVGFQTHLKWGEQKRVFQMIPGLENAEFVRYGVMHRNSYMDSPNLLKQTFQSRKQENLFFAGQMTGVEGYVESAASGLVAGINAVKLFNDEEVVIFPKTTAIGSLPYYITHTDSKHFQPMNVTFGIVEELEGPRIRDKKERYTKVAERALNSLTDIISKDNLLEHHHHHH,soluble
3,MGSDKIHHHHHHMNLKQITYFLAVAEAGQMTAAAKQLHMAQPPLSYQLKALEDELGVRLFERGSRGVRLTGSGQQFMTYAQQIVETVAAAENAARRSGEGEIGTLALGLTSSAGDVLPKQKLQAFNRRYPQVEFALYEDNTYGILDKLRRNILDLAIVRTPFNDDGLASCRLSSDHMIAVAAASQPLPATLTIPDLKQQPLIVYRRFSSLFKTTFAEYGITPIIAVLCDDARTALHWAQMGMGVALVPATMAALASQQSHLAVIDYEPWVTHMTLVWQPEALHNPLVARFVGQLSGGESEKYSK,not soluble
4,LDNAPLLELDVQEWVNHEGLSNEDLRGKVVVVEVFQMLCPGCVNHGVPQAQKIHRMIDESQVQVIGLHSVFEHHDVMTPEALKVFIDEFGIKFPVAVDMPREGQRIPSTMKKYRLEGTPSIILADRKGRIRQVQFGQVDDFVLGLLLGSLLSETD,not soluble
5,SLFGYHDVEDFQAEIGEYKIKTERIGPFYSYVRENGERKEKNLSVETGRIIVNPVEPVNLPKEITNFLQIKFSKPFLAEPKSAVEVYATFPVEIAVFIAAKKNVGLVDVFSLQKPKYTLYGNPRAGIICRYWESELYSEIPQVDKYREGVIKLRIVNSDDEWVEVSNAVFDVYGMKIYYNEEMVCSSASVNIVSPKVAETRFIEQPLREKMKKALELYTARRIAVTSLKFVMEWGL,not soluble
6,MTTHEKVILVGVETEKNYQTFSASMEELANLTETANGEVVFVLTQKRPQVDRQTVIGKGKLEELIQLTDAYEADLVIFNHELTPRQNQLLSEALAVRVIDRVQLILDIFALRARSKEGKLQVELAQLDYLLPRLAGQGKQLSRLGGGIGTRGPGETKLESDRRHIRNKILGIRRELKEVTAHRERSRQKRQNSELFQIGLIGYTNAGKSTILNMLTTAGTYSEDQLFATLDPLTKKWQLPQGMEVTLTDTVGFIQDLPTQLIEAFQSTLEESRTMDLLLHVVDASAPDRLQHERTVQTLMKELALENIPCLTVYNKRDQVDSKEFVPTLFPNVLISTKISEDKERLVQAIRAQMMELLEPYQLEISPTDGQLLSELRRMTLMISEEYAENENRYIVKGFAKKKSKWLAESEKEAAALEHHHHHH,not soluble
7,MLACSFKAVNGGFRHLLIRMIIDPPHHLFDTALARQIAIHILHYQFEVTRPRLVAMQEHERTAVARSLRTINRRLEEPVFAKAYRRWAGRDGTVSRDCFKFDCCA,not soluble
8,SLEDYLQGCRAALQESRPLHVVLGNEACDLDSTVSALALAFYLAKTTEAEEVFVPVLNIKRSELPLRGDIVFFLQKVHIPESILIFRDEIDLHALYQAGQLTLILVDHHILSKSDTALEEAVAEVLDHRPIEPKHCPPCHVSVELVGSCATLVTERILQGAPEILDRQTAALLHGTIILDCVNMDLKIGKATPKDSKYVEKLEALFPDLPKRNDIFDSLQKAKFDVSGLTTEQMLRKDQKTIYRQGVKVAISAIYMDLEAFLQRSNLLADLHAFCQAHSYDVLVAMTIFFNTHNEPVRQLAIFCPHVALQTTICEVLERSHSPPLKLTPASSTHPNLHAYLQGNTQVSRKKLLPLLQEALSAYFDSMKIPSGQPETADVSREQVDKELDRASNSLISGLSQDEG,soluble
9,MGSDKIHHHHHHMRILLSVSRFEDELIEILDRLDETYEIFADNDCFEILKDRIPRIRPFERDDFDLLYLNWRDLPSEKREEKILSTIDENRTLLFLKAIKNYREKLVVTTLEDLKLTFSEIERAGDVSLQTRRYLLLKGLAHFLKVHSEVLESLSDLFFIKDWKAIVLERLQEGIKAPVSLLPVSIPPELVEDIGLASHLIRFLPQKACVLVKNGKIVYASSTGDLPEIEGGVFALKGVFRGEKKFDFILAEDFEGDVEGLRIKDLLHQEEGLVLLGASGYLREPVPTNDFTEVLSMHPVFDSCAVTKEGKLVLHVVELNRSDVINALEKIDLSGTEVAFNFPISDEEKAELKQKGVKKVSWIDSRRIWRRC,not soluble
10,MEKLSSSSHFLDLGGLDNLRAQAQKDEKGALKKVAQQFEGVFVQMLMKSMRDANAVFESDSPLNSQYTKFYEQMRDQQLSVDLSDKGVLGLADMMVQQLSPESSPFTPASVLRNDGGMKLEHDAKALNIPTQTPSTAEAESANTPVVVAHGVPASIARPSVEFEDNNGVTSSLDIDRPQRLLAIDTPKPTWSEQPLSAIEPVISGQILPTVAFRETQKTLKFGSREEFLATLYPHAEKAAKALGTKPEVLLAQSALETGWGQKIVRGHNGAPSHNLFNIKADRRWQGDKANVSTLEFEQGIAVRQKADFRVYNDFDHSFNDFVSFIADGERYQDAKKVAASPTQFIRALQEAGYATDPKYAEKVIKVMQSISEELKSILPGEDK,not soluble
11,MSLMSKPQITIKDIARELGVSPSTVSRALKDNPDISQETRDAIHKYAREHNYKPNVLALNLRTSRSNTIGVIIPQLVHHFFSCVLSGIERTAAEAGYNILVAQSNEEYEREVKIVHSFLAARVCGVITSLAKDTSRYDHYQELLDNNIPIVFYDRICTGINTERVVVDDYAGSFAAVEYMIQTGCKRIFFYSAAPHLEISKNRRNGYMDAMKKYRIPVDQSMIKLCDSREKAIAITPALLERPDHPDGFFAINDETASGILYSCKLTGRKVPDEVSICGFTDGAIAQSTDPKLTTVEQHGEEVGKSTIRLLIDKLEGNDEGKSGNKIVRTNLVVRGTTKEGHHHHHH,soluble
12,GGRALRVLVDMDGVLADFEGGFLRKFRARFPDQPFIALEDRRGFWVSEQYGRLRPGLSEKAISIWESKNFFFELEPLPGAVEAVKEMASLQNTDVFICTSPIKMFKYCPYEKYAWVEKYFGPDFLEQIVLTRDKTVVSADLLIDDRPDITGAEPTPSWEHVLFTACHNQHLQLQPPRRRLHSWADDWKAILDSKRPC,soluble
13,MIQIEDVVVSFDVLREKFLCNLDACKGECCIEGDAGAPVELDEVEKLEEVLPIIWEELSPEARAVIEKQGVVYTDQEGDLVTSIVNNKDCVFTCYDEKGCCYCAIEKAYRDGKTDFYKPVSCHLYPIRIGDYGPYKAVNYHRWDVCKAAVLLGKKENVAVYQFLKEPLIRKFGEKWYQELEVAVKELKAHDMI,not soluble
14,MGSDKIHHHHHHMSPHDAKSVIRRFVKEVLNDKNLAVIDEICPPDYVELDPLPGQGPGAAGLKAFLGESFFKAFPDLVWVNEEMVAEGEYVMARSTWTGTHRGEFLGIPPTHRAVKVAAWTIDHVVDGKFVDSRILVDALSLLQQLGALPAWPPPPKTFQAMVDAAYRSVPTIKAADLHRRLKREPDLLIIDVRDAAEVAQTGAIPGAINLSYGTLTYAADHTAPEDWRDPRLADHARPIVTTCGLGPLGALGGGLLHEMGFTNVQILEGGVQAWIDAGLPVVKPGDQ,not soluble
15,MAHHHHHHMCSVLILASTCRRRFSNVHLTPAGTVLNSNSALISRRINRRKMKNCNNNDLLKVLKMETTYNELPAHNLLMSSKNDINKLFDYINKNEELSKLMNSCGTYVYLKYLGVVIFSIKENVQISHLSEFIQYLLNKNVFGSSTFTKIRKSKDSDTYNAPFIICLVLIVRVCLSPFLNNILYCHMQNEIITFIIFKPTKKSVHCFFSFFTILL,soluble
16,MGSDKIHHHHHHMLSTAKERQLKIVNRLKVEQFMRIIDLVELVNYSEATVKRDLVELEKEGLVRRTRGGAMIIDNKKIDLPYLMKMNERSNETSKIRIADIAKSLIRDDMVIFLDSSSTSLHLIDVLSKFDGLQIITNGVMTASMLSEFTNARVSILGGSILTKRYTVNGAKAYNDALTYNADIAFVSCRGIDYDKGATETHEGEALIKQAFRRQSSSLVLLVTEEKVGHKFMHQSLACHDIDYLITDFKLDSDVEEQFKTHQITCLY,not soluble
17,AEKRIGLMLFGKGNIGSRWLELFAREQTTLSARTGFEFILAGVVDSKRSLLNYDGLDASRALAFFNDEAVEQDEESLFLWMRAHPYDDLVVLDVTASEQLADQYLDFASHGFHVISANKLAGASSSDKYRQIHDAFEKTGRHWLYNATVGAGLPVNHTVRDLIDSGDTILGLSGIFSGTLSWLFLQ,not soluble
18,MTPDQMRDASLLELFRLEAEAQTQVLNAGLMALERSPTQADQLEACMRAAHSLKGAARIVGLDAGVRVAHVMEDCLVEAQDGRLLLQSEHIDALLQGCDLLLRIGTPPAGDAGWAEGAGREEIDGLVLRLEGLVRSGLPLARAELPATTPGLPEAVPEAPPAASAAASDDNDEEPAGQAGGEQAEERRSRVLRVTAERLDRLLDISSKSLVEFQRIKPLADSLQRLRRLQSSASRALDVVRETVQETALDPQAQAMLGEARQLIGECQQMLVQHIADLDEFAWQGGQRAQVLYDAALASRMRPFADVLSGQARMVRDLGRSLGKQVRLLVEGESTQVDRDVLEKLEAPLTHLLRNAVDHGIEAPETRLAAGKPAEGRITIRARHHAGMLVLELSDDGGGIDLQRLRETVLNRQFATAETVAQLSEEELLAFLFLPGFSMREQVTEVSGRGVGLDAVQHMVRQLRGGVRMEQRQGQGALFHVEVPLTLSVVRSLVVEIGEEAYAFPLAHIERMCELEAEEIVQLEGRQHFWYEGRHVGLVSAAQLLQRPESSRTEGAIPVVVVRDRDAVYGVAVERFVGERTLVVMPLDPRLGKVRDVSAGALLDDGSPVLILDVEDLLHSVGKLLSSGRLERIDRSRRQAGGAQRKRILVVDDSLTVRELERKLLLGRGYDVAVAVDGMDGWNALRSEHFDLLITDIDMPRMDGIELVTLVRRDSRLQSLPVMVVSYKDREEDRRRGLDAGADYYLAKASFHDEALLDAVVVLIGEAQG,not soluble
19,EWVAPTLSQKAENIKAAAINGKISTGNTGLWLKEKNSIINVREMLPDHTLLGIKIWARNDKNELAEAVEADSAVLNSDGSWQLKNIRRSTLGEDKVEVSIAAEENWPISVKRNLMDVLLVKPDQMSVGELTTYIRHLQNNSQNTRIYAIAWWRK,not soluble
